One block for each compound: values may come before it.
Tests used:
[1] = particle / droplet size by photon correlation spectroscopy (Coulter N4 Plus); assay type: physicochemical
Description: To determine the existence of an oil-in-water microemulsion window for the microemulsion precursor, exactly two (2) milligrams of emulsifying wax were weighed accurately into ten separate 7-mL glass vials and melted at 50° C. on a temperature calibrated magnetic hot plate. Water (0.2 μm filtered) was then added (750-1000 μL) to form a homogeneous milky slurry in the stirring water at 50° C. To form the microemulsion precursor, the surfactant polyoxy 20 stearyl ether (100 mM) in water was added (0-250 μL) so that the final surfactant concentration ranged from 0 mM to 25 mM in the ten vials. The microemulsion precursor was then removed from heat (52-54° C.) and allowed to cool to 25° C. while stirring. […] Thus, an apparent microemulsion window was defined. One hundred (100) μL of each cooled system was taken and diluted with 900 μL water. The particle size of the diluted solid nanoparticles was determined using a Coulter N4 Plus Sub-Micron Particle Sizer at 20° C. by scattering light at 90° for 120 seconds. The particle sizes of systems with no surfactant added could not be determined since the systems contained precipitates that were greater than 3000 nm in diameter. […] To determine if the measured droplet sizes in either the microemulsion nanotemplate or the cured solid nanoparticles were due to the presence of surfactant micelles, samples were made as described above with no emulsifying wax and with final surfactant concentrations ranging from 0 mM to 100 mM in water. […] It is likely that the relatively heterogeneous nature of the polymeric surfactant makes the determination of its CMC difficult using conventional techniques. Photon correlation spectroscopy, using a Coulter N4 Plus Submicron Particle Sizer, was used to determine the existence and the size of the surfactant micelles.
Preparation of polyoxyethylene 2 stearyl ether nanoparticles. Three separate samples of polyoxyethylene 2 stearyl ether nanoparticles were engineered using the following process. Polyoxyethylene 2 stearyl ether (2 mg) was melted at 50-55° C. and dispersed in 970 microliters of water at the same temperature. Thirty microliters of solution of Tween 80 (10% v/v in water) was added to produce a clear oil-in-water microemulsion at approximately 55° C. The oil droplet size of liquid polyoxyethylene 2 stearyl ether was measured by photon correlation spectroscopy to be 22.2±1.8 nanometers at approximately 55° C. Polyoxyethylene 2 stearyl ether nanoparticles were cured by three different methods as follows: Method A) cooling of the undiluted oil-in-water microemulsion at 55° C. to room temperature while stirring, Method B) cooling of the oil-in-water microemulsion at 55° C. by placing undiluted in a refrigerator at 4° C., and Method C) diluting (1/10) the oil-in-water microemulsion at 55° C. with water at 4° C. […] Further, Method A illustrated a key advantage of simply allowing the oil-in-water microemulsion to cool to room temperature to form useful solid nanoparticles. This method allows for rapid, reproducible, and cost-effective method to engineer useful nanoparticles.
Preparation of Emulsifying Wax nanoparticles. Three separate samples of emulsifying wax nanoparticles were engineered using the following process. Emulsifying wax (2 mg) was melted at 50-55° C. and dispersed in 970 microliters of water at the same temperature. […] The oil droplet size of liquid emulsifying wax was measured by photon correlation spectroscopy to be 24.5±0.4 nanometers at approximately 55° C. […]

[2] = cited from earlier work
[3] = ASF-pal alone in water, 1340 μg/mL

diameter of nanoparticles entrapping GdAcAc [1]: about 50 nanometers
Compound: CC(=O)C=C(C)[O-].CC(=O)C=C(C)[O-].CC(=O)C=C(C)[O-].[Gd+3] [GdAcAc, Gadolinium acetylacetonate]

Compound: c1ccc(-c2cnc(-c3ccccc3)o2)cc1 [PPO, 2,5-diphenyloxazole]
classification of water solubility [2]: water-insoluble

Compound: ASF-pal: Asialofetuin derivatized with about 12 palmitate arms per molecule; ligand
effect of added ASF-pal on particle size of cured solid nanoparticles ([1]; 200 μg nanoparticles per 1 mL): only a small effect
size of micelles formed ([1]; ASF-pal alone in water, 67 μg/mL): 3-15 nm
size of larger aggregates formed [1, 3]: 40-300 nm
size of micelles formed [1, 3]: 3-10 nm

— patent US6855270B2, “Nanoscintillation systems for aqueous-based liquid scintillation counting” (The University of Kentucky Research Foundation, priority 2001, dated 2005)
